Here are results for one molecule from publication PMC8402609 (Vaccines, 2021).

What all share (test): SPR
Holding throughout (details): both partners purified

Test [1] has as its target T1, 3D7-MSP2(207-222) (WT) 16-residue peptide (Plasmodium falciparum 3D7).
T1 construct: source: synthetic peptide (Fmoc solid phase, in-house, reverse-phase purified)
T1 chain: SQKECTDGNKENCGAA

Test [2] has as its target T2, 8-residue peptide 3D7-MSP2(215-222), minimal 4D11 epitope (Plasmodium falciparum 3D7).
T2 construct: source: synthetic peptide
T2 chain: NKENCGAA

Test [3] concerns the target T3, 3D7 merozoite surface protein 2 (MSP2) (Plasmodium falciparum 3D7, UniProt P50498).
T3 construct: also called 3D7 MSP2; 3D7-MSP2

T3 sequence (P50498 21-246): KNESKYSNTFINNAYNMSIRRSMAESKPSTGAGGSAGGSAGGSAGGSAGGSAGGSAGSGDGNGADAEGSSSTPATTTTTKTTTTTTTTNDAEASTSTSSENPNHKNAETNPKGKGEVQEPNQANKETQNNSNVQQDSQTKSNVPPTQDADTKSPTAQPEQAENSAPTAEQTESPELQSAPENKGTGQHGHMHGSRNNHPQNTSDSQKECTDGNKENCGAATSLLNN

B1: mouse monoclonal antibody 4D11 IgG (antibody, V domains shown)
VH: QVRLQQSGAELVKPGASVKLSCTASGFNIKDDYMHWVKQRPEQGLEWIGRIDPANGNTQYAPKFQDKATITADTSSNTAYLQLTSLTSEDTAVYYCARGGLLRWGQGTSVTVSS
VL: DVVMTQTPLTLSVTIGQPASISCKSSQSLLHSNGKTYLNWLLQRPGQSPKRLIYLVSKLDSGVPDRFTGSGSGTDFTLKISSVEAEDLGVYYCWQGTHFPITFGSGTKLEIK
In the case of B1, the equilibrium dissociation constant (Kd) in test [1] turned out to be 900 nM; in test [2], 240 nM. Besides, the binding result in test [3] is given as “binds”.

The Kd is the concentration at which binding is half-saturated.
